# Positions count from the first letter of the chain named. Names and notes keep the numbering of the source.
# B1: 108929 (antibody, human IgG1, kappa, N297A, V domains shown)
# VH: EVQLVQSGAEVKKPGESLKISCKGSGYAFSNYLIEWVRQMPGKGLEWMGVINPGSGGTYYNEKFKGQVTISADKSISTAYLQWSSLKASDTAMYYCARWRGEGYYAYFDVWGQGTTVTVSS
# VL: AIRLTQSPSSFSASTGDRVTITCKASQSVDYQGDSYMNWYQQKPGKAPKLLIYTASNLESGVPSRFSGSGSGTDFTLTISSLQSEDFATYYCQQSNEDPYTFGGGTKVEIKR
# B2: Antibody No: 22 (antibody, human IgG1, kappa, N297A, V domains shown)
# VH: B1 VH with Y59N, F108Y
# VL: B1 VL with M37L, T54A
# notes: VK M33L; HEK293F supernatant
# B3: Antibody No: 25 (antibody, human IgG1, kappa, N297A, V domains shown)
# VH: B1 VH with Y59N, F108Y
# VL: B1 VL with M37L, T54S
# notes: VK M33L + A50S; HEK293F supernatant
# B4: Antibody No: 33 (antibody, human IgG1, kappa, N297A, V domains shown)
# VH: B1 VH with F108Y
# VL: B1 VL with T54S
# notes: VK A50S; HEK293F supernatant
# B5: Antibody No: 35 (antibody, human IgG1, kappa, N297A, V domains shown)
# VH: B1 VH with F108Y
# VL: B1 VL with M37L, T54S
# notes: as for B3
# B6: Antibody No: 31 (antibody, human IgG1, kappa, N297A, V domains shown)
# VH: B1 VH with F108Y
# VL: B1 VL with T54A
# notes: VK WT; HEK293F supernatant
# B7: Antibody No: 7 (antibody, human IgG1, kappa, N297A, V domains shown)
# VH: B1 VH with S30T, Y59N, F108Y
# VL: B1 VL with M37L, T54A
# notes: VK M33L; HEK293F supernatant
# B8: Antibody No: 24 (antibody, human IgG1, kappa, N297A, V domains shown)
# VH: B1 VH with Y59N, F108Y
# VL: B1 VL
# notes: VK A50T; HEK293F supernatant
# B9: Antibody No: 10 (antibody, human IgG1, kappa, N297A, V domains shown)
# VH: B1 VH with S30T, Y59N, F108Y
# VL: B1 VL with M37L, T54S
# notes: as for B3
# B10: Antibody No: 11 (antibody, human IgG1, kappa, N297A, V domains shown)
# VH: B1 VH with S30T
# VL: B1 VL with T54A
# notes: VH N58Y; VK WT; HEK293F supernatant
# B11: Antibody No: 34 (antibody, human IgG1, kappa, N297A, V domains shown)
# VH: B1 VH with F108Y
# VL: B1 VL
# notes: VK A50T; HEK293F supernatant
# B12: Antibody No: 29 (antibody, human IgG1, kappa, N297A, V domains shown)
# VH: B1 VH
# VL: B1 VL
# notes: VH N58Y + T30S; VK A50T; HEK293F supernatant
# B13: Antibody No: 2 (antibody, human IgG1, kappa, N297A, V domains shown)
# VH: B1 VH with S30T, Y59N
# VL: B1 VL with M37L, T54A
# notes: VH WT; VK M33L; HEK293F supernatant
# B14: Antibody No: 21 (antibody, human IgG1, kappa, N297A, V domains shown)
# VH: B1 VH with Y59N, F108Y
# VL: B1 VL with T54A
# notes: VK WT; HEK293F supernatant
# B15: Antibody No: 32 (antibody, human IgG1, kappa, N297A, V domains shown)
# VH: B1 VH with F108Y
# VL: B1 VL with M37L, T54A
# notes: VK M33L; HEK293F supernatant
# B16: Antibody No: 30 (antibody, human IgG1, kappa, N297A, V domains shown)
# VH: B1 VH
# VL: B1 VL with M37L, T54S
# notes: VH N58Y + T30S; VK M33L + A50S; HEK293F supernatant
# B17: Antibody No: 3 (antibody, human IgG1, kappa, N297A, V domains shown)
# VH: B1 VH with S30T, Y59N
# VL: B1 VL with T54S
# notes: VH WT; VK A50S; HEK293F supernatant
# B18: Antibody No: 27 (antibody, human IgG1, kappa, N297A, V domains shown)
# VH: B1 VH
# VL: B1 VL with M37L, T54A
# notes: VH N58Y + T30S; VK M33L; HEK293F supernatant
# B19: Antibody No: 17 (antibody, human IgG1, kappa, N297A, V domains shown)
# VH: B1 VH with S30T, F108Y
# VL: B1 VL with M37L, T54A
# notes: VK M33L; HEK293F supernatant
# B20: Antibody No: 14 (antibody, human IgG1, kappa, N297A, V domains shown)
# VH: B1 VH with S30T
# VL: B1 VL
# notes: VH N58Y; VK A50T; HEK293F supernatant
# B21: Antibody No: 26 (antibody, human IgG1, kappa, N297A, V domains shown)
# VH: B1 VH
# VL: B1 VL with T54A
# notes: VH N58Y + T30S; VK WT; HEK293F supernatant; 108929 is kept apart
# B22: Antibody No: 4 (antibody, human IgG1, kappa, N297A, V domains shown)
# VH: B1 VH with S30T, Y59N
# VL: B1 VL
# notes: VH WT; VK A50T; HEK293F supernatant
# B23: Antibody No: 19 (antibody, human IgG1, kappa, N297A, V domains shown)
# VH: B1 VH with S30T, F108Y
# VL: B1 VL
# notes: VK A50T; HEK293F supernatant
# B24: Antibody No: 23 (antibody, human IgG1, kappa, N297A, V domains shown)
# VH: B1 VH with Y59N, F108Y
# VL: B1 VL with T54S
# notes: VK A50S; HEK293F supernatant
# B25: Antibody No: 18 (antibody, human IgG1, kappa, N297A, V domains shown)
# VH: B1 VH with S30T, F108Y
# VL: B1 VL with T54S
# notes: VK A50S; HEK293F supernatant
# B26: Antibody No: 16 (antibody, human IgG1, kappa, N297A, V domains shown)
# VH: B1 VH with S30T, F108Y
# VL: B1 VL with T54A
# notes: VK WT; HEK293F supernatant
# B27: Antibody No: 9 (antibody, human IgG1, kappa, N297A, V domains shown)
# VH: B1 VH with S30T, Y59N, F108Y
# VL: B1 VL
# notes: VK A50T; HEK293F supernatant
# B28: Antibody No: 5 (antibody, human IgG1, kappa, N297A, V domains shown)
# VH: B1 VH with S30T, Y59N
# VL: B1 VL with M37L, T54S
# notes: VH WT; VK M33L + A50S; HEK293F supernatant
# B29: Antibody No: 6 (antibody, human IgG1, kappa, N297A, V domains shown)
# VH: B1 VH with S30T, Y59N, F108Y
# VL: B1 VL with T54A
# notes: VK WT; HEK293F supernatant
# B30: Antibody No: 28 (antibody, human IgG1, kappa, N297A, V domains shown)
# VH: B1 VH
# VL: B1 VL with T54S
# notes: VH N58Y + T30S; VK A50S; HEK293F supernatant; 108930 is kept apart
# Biological target: T1, Proleukin® (aldesleukin) (human, UniProt P60568 21-153, limits assumed)
# T1 construct: Variant of human wt IL-2 with C145S (C125S on mature IL-2); also called IL-2 (Proleukin®); human IL-2 (Proleukin)
# Test: ELISA, coated Proleukin, mean of 3 experiments;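 note: binding of anti-human IL-2 antibodies, tested as an 11-point dilution series for 2 hours, to plate-bound IL-2, detected via streptavidin-HRP with absorbance read at 450 nm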
# Method: ELISA plates (Corning) were coated with human IL-2 (Proleukin) at 10 μg/mL in PBS overnight at 4° C. The plates were washed 6 times with PBST, then blocked in 1% BSA/PBST for 2 hours. After blocking and washing, the anti-human IL-2 antibodies were added on the plate in an 11-point dilution series in 1% BSA/PBST and incubated for 2 hours. […] The plates were then washed again and incubated with Streptavidin-Horseradish Peroxidase in 1% BSA/PBS for 45 minutes. After washing, the substrate (R&D Systems) was added into the plates and the enzymatic reaction was stopped after 3 minutes by adding Stop Solution. The plates were read by a microplate reader at 450 nm with a wavelength correction set to 540 nm.
# T1 sequence (P60568 other isoform, or with tags, fused parts or gaps limits assumed): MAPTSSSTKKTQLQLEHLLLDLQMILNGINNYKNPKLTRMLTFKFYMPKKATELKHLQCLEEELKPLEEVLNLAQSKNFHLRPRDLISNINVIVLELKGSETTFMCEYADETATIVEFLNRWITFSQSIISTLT
row,Binder,EC50 [nM]
1,B1,0.15

# Biological target: T1, Proleukin® (aldesleukin)
# Test: ELISA, coated Proleukin, HEK293F supernatant 1:2
# Method: Subsequently, hIL-2 binding efficiency of the antibodies present in the supernatants was determined using ELISA. In brief, ELISA plates (Maxisorp 96-well black microtiter plate) were coated overnight at 4° C. with 100p/well of Proleukin® (5 μg/ml PBS). ELISA plates were washed once with TBST (1×TBS/0.05% Tween 20) using a plate-washer (BioTek). […] After removal of the blocking buffer, plates were washed once with TBST using the plate washer. Supernatants were diluted 1:2 in blocking buffer and 50 μl transferred to the designated well of the ELISA plate. Each sample was present on three ELISA plates. The three plates were incubated at RT under gentle agitation. […] The other two plates were washed either every hour three times with TBST for 4 hours or washed every hour three times for 12 hours before adding the detection antibody. […] Luminescence signal was measured after 5 minutes incubation in the dark. […] All ELISA values are mean values based on two measurements.
Binder,ELISA value (Normal ELISA) [luminescence signal],ELISA value (wash 3x every hour for 4 HRS) [luminescence signal],ELISA value (wash 3x every hour for 12 HRS) [luminescence signal]
B2,3970,3190,1200
B3,3570,3050,1080
B4,3990,3570,1820
B5,4910,4040,1790
B6,11400,10300,3400
B7,7640,6360,1550
B8,2770,1880,674
B9,6050,4430,1630
B10,12400,10500,3500
B11,3860,3080,1360
B12,6950,6850,2720
B13,1360,1230,518
B14,2200,1840,892
B15,7190,6210,3330
B16,14900,14400,2800
B17,4500,4580,1310
B18,7760,7000,2770
B19,3050,2820,1140
B20,7180,7200,2540
B21,4030,4210,1800
B22,2180,1990,705
B23,5400,4880,2210
B24,6170,4640,1250
B25,8060,7320,3660
B26,10200,9810,2280
B27,1940,1430,686
B28,4970,4490,873
B29,5850,5120,1730
B30,18500,18100,5870

# Biological target: T1, Proleukin® (aldesleukin)
# Test: ELISA, coated Proleukin, serially diluted supernatant
row,Binder,EC50 [nM]
1,B2,0.43
2,B3,0.42
3,B4,0.67
4,B5,0.72
5,B6,0.39
6,B7,0.31
7,B8,0.59
8,B9,0.35
9,B10,0.34
10,B11,0.65
11,B12,0.24
12,B13,0.79
13,B14,0.65
14,B15,0.65
15,B16,0.22
16,B17,0.51
17,B18,0.39
18,B19,1.39
19,B20,0.36
20,B21,0.49
21,B22,0.73
22,B23,0.5
23,B24,0.26
24,B25,0.54
25,B26,0.38
26,B27,0.5
27,B28,0.5
28,B29,0.34
29,B30,0.16
